Experimental data: US20220289837A1, “Cystic Fibrosis Transmembrane Conductance Regulator Stabilizing Agents” (VIB VZW, priority 2019, published 2022)

Biological target: T1, F508del-CFTR (Homo sapiens, UniProt P13569, DEL508-508)
T1 construct: expressed in transfected cells
Test: Forskolin induced organoid swelling (FIS) assay
Format: cell-based
Conditions: F508del homozygous intestinal organoids, lentiviral Nb, 3 μM VX-809 24 h before, Fsk and 3 μM VX-770, 2 h
From the text: Intestinal organoids are 3D epithelial structures grown from a single Lgr5+ stem cell (originating from the crypts of the GI-tract) with an internal lumen that recapitulates key features of the intestinal tissue architecture. When differentiated, the organoids form villus and crypt-like structures. CFTR is located at the apical membrane lining the internal lumen and its activation leads to rapid organoid swelling, in direct correlation with the amount of functional CFTR. This model system thus provides a physiologically relevant assay to evaluate the potential of new therapies with high translational value. CF patient-derived organoids expressing F508del-CFTR from two alleles were transduced with lentiviral vectors encoding the sequence of either a stabilizing nanobody (T2a) or a control nanobody. 24 h before FIS assay, corrector 3 μM VX-809 or DMSO was added. Organoids were stimulated by Fsk (0,8 μM) and 3 μM VX-770 just before FIS. […]
Transduction of human intestinal organoids was performed as described previously (Vidovic, Carlon et al. 2016, Ensinck, De Keersmaecker et al. 2020). […] Organoids were stimulated with forskolin (5 μM) and VX-770 (3 μM) or DMSO, and analyzed by confocal live cell microscopy at 37° C. for 120 min (LSM800, Zeiss, Zen Blue). The total organoid area increase relative to t=0 of forskolin treatment was quantified.

T1 sequence (P13569 with tags, fused parts or gaps DEL508-508): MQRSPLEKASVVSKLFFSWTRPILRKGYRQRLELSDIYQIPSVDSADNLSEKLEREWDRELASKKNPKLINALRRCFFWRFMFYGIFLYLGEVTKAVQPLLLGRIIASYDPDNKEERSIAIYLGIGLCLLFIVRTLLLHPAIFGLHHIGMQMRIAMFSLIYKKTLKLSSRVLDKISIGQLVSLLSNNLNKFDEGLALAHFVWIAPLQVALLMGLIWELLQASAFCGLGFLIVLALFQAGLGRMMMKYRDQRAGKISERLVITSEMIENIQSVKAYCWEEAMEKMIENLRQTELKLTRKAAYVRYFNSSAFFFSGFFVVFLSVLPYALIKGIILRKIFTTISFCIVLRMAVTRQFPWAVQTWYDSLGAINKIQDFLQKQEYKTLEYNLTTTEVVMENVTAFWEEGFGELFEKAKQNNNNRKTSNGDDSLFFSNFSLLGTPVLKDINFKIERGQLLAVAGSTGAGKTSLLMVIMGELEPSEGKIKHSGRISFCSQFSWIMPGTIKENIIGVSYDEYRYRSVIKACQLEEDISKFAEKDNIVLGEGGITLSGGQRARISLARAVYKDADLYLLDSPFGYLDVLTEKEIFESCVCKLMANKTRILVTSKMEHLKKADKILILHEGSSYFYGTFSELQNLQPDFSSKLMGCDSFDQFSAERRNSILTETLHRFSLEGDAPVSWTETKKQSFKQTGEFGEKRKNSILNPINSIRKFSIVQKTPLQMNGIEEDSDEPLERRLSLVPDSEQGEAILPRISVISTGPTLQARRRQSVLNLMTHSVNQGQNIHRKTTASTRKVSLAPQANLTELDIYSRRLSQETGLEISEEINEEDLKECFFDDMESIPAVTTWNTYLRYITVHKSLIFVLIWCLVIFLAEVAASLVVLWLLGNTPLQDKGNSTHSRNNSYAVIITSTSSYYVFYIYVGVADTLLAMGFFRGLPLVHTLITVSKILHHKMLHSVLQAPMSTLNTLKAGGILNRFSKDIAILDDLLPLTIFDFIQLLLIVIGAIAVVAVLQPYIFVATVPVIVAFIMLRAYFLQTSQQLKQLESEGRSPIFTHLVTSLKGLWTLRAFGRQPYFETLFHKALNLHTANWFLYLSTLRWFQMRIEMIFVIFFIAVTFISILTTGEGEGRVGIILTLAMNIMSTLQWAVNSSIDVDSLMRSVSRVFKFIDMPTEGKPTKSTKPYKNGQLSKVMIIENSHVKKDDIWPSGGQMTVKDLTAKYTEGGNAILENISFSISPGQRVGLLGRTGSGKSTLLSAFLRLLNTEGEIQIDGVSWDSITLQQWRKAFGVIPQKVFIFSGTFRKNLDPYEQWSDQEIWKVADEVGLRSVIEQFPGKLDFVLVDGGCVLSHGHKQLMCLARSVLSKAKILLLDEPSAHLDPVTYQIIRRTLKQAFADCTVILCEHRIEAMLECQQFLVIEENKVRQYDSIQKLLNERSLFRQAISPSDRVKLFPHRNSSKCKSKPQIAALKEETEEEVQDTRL

B1: T2a: NBD1-specific CFTR-stabilizing nanobody, SEQ ID NO:3, binds epitope 1 (protein)
VHH: QVQLQESGGGLVQAGGSLRLSCAASGSIFRIDAMGWYRQAPGKQRELVAHSTSGGSTDYADSVKGRFTISRDNAKNTVYLQMNSLKPEDTAVYYCNADVRTRWYASNNYWGQGTQVTVSS
modifications: T2a Nanobody amino acid sequence
For B1, the “CFTR response (relative increase in organoid surface area)” value was “significantly increased CFTR functionality over time”.
